Source: the supplement of paper PMC10065799, “High-throughput profiling of sequence recognition by tyrosine kinases and SH2 domains using bacterial peptide display” (eLife, 2023)

How the values were obtained:
SHP2-C SH2 = experiment: SH2 binding enrichment of the phosphorylated peptide, bacterial display (enrichment ratio); higher = better substrate or ligand; peptides without Tyr show the background
c-Src SH2 = experiment: as above
Grb2 SH2 = Grb2 SH2 (UniProt P62993); experiment: as above
EPHB2 = EPHB2 (UniProt P29323); experiment: phosphorylation enrichment, bacterial display (enrichment ratio); higher = better substrate or ligand; peptides without Tyr show the background
Jak2 = Jak2 (UniProt O60674); experiment: as above
Jak2, sequence (O60674 whole entry, looked up): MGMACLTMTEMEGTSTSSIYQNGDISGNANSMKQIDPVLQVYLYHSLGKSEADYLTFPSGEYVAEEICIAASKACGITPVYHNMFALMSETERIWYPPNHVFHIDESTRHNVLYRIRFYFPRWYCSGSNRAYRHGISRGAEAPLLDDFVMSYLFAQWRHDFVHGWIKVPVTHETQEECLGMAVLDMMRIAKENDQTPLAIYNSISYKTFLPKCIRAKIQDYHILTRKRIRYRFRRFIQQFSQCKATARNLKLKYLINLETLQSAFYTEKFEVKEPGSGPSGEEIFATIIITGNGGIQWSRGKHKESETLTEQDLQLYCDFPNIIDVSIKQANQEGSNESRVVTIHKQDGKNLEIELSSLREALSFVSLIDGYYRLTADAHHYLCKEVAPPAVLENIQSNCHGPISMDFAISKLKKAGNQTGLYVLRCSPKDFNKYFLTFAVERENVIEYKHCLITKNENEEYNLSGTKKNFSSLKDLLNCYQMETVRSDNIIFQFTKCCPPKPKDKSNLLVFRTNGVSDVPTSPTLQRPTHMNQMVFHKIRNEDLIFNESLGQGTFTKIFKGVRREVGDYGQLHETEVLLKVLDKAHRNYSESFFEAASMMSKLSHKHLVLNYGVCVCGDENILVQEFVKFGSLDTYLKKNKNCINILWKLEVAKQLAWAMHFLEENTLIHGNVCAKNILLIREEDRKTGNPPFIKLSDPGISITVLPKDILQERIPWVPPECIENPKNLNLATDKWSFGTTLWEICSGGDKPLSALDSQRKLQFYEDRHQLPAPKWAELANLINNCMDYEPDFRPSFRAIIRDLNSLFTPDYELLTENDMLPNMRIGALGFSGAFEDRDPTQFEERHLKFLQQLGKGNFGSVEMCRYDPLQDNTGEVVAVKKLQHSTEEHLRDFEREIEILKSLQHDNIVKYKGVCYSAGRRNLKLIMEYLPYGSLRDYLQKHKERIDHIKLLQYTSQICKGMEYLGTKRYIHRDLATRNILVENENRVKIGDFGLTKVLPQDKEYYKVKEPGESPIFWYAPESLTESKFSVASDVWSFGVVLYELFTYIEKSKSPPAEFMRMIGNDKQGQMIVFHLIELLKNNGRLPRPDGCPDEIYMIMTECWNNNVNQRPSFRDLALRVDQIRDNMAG

c-Src = experiment: as above
EPHB1 = EPHB1 (UniProt P54762); experiment: as above
EPHB1, sequence (P54762 whole entry, looked up): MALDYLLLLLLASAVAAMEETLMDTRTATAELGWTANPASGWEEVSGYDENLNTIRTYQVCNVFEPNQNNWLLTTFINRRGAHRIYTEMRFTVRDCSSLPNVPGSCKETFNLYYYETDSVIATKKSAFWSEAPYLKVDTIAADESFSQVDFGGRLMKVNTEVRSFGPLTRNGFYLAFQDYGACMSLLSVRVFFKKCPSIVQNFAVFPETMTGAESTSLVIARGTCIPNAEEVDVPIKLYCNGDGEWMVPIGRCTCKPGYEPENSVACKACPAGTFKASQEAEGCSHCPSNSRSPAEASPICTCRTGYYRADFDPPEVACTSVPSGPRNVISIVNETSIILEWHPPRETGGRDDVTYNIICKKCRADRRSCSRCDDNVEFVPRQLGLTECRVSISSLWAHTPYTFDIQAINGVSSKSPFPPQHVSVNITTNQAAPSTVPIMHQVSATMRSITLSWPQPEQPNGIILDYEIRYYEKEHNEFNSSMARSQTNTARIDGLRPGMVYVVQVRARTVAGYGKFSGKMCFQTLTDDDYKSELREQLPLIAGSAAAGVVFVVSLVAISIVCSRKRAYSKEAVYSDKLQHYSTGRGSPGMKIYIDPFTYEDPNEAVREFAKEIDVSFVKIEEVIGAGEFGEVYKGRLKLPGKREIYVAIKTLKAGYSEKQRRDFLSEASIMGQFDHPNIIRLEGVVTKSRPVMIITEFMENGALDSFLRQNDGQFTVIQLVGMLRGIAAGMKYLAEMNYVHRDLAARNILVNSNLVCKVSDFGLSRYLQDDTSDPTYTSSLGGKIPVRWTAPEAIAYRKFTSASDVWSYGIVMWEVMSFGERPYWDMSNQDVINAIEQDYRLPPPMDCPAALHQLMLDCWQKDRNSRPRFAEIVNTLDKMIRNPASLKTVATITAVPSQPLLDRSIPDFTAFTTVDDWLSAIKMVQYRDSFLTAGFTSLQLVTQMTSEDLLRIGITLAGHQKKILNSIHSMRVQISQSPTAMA

Fyn = Fyn (UniProt P06241); experiment: as above
Fyn, sequence (P06241 whole entry, looked up): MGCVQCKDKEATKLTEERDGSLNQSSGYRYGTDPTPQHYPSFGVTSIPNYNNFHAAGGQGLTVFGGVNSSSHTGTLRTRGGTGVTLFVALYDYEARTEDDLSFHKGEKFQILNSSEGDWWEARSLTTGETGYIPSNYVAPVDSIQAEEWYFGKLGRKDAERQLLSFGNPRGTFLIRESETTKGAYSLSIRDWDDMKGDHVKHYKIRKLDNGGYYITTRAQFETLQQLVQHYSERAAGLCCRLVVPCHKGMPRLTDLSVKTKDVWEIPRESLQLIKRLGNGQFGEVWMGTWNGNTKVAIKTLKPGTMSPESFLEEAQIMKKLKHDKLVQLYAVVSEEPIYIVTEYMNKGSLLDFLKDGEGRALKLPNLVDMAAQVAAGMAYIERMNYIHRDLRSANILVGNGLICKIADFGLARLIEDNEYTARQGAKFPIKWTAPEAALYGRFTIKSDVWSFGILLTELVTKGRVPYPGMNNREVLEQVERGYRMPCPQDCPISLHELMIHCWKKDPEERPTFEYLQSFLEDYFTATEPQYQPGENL

Fes = Fes (UniProt P07332); experiment: as above
Fes, sequence (P07332 whole entry, looked up): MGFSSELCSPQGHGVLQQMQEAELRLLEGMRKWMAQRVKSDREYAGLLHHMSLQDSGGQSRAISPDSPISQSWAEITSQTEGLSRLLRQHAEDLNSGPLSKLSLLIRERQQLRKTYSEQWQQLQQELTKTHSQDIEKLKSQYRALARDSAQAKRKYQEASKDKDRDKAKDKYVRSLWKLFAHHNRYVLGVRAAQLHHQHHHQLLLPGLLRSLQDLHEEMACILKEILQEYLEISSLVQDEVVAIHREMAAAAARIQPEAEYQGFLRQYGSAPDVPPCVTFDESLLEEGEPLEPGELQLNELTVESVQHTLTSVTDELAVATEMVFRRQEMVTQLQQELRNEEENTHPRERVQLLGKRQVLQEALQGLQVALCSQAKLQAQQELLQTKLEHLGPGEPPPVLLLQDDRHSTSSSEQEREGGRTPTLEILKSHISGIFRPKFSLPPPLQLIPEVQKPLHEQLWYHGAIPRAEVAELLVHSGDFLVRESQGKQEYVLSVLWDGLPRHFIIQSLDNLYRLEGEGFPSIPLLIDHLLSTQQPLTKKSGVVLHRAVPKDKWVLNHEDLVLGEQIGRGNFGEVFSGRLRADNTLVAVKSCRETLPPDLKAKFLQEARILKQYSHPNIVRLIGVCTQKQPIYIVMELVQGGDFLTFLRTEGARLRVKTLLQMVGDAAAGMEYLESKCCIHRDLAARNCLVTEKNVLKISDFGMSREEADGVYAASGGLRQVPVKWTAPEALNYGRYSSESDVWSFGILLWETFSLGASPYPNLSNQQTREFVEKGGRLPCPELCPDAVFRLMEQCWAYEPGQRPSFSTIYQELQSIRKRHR

c-Abl (mouse) = experiment: as above
MERTK = MERTK (UniProt Q12866); experiment: as above
Hck = Hck (UniProt P08631); experiment: as above
Hck, sequence (P08631 whole entry, looked up): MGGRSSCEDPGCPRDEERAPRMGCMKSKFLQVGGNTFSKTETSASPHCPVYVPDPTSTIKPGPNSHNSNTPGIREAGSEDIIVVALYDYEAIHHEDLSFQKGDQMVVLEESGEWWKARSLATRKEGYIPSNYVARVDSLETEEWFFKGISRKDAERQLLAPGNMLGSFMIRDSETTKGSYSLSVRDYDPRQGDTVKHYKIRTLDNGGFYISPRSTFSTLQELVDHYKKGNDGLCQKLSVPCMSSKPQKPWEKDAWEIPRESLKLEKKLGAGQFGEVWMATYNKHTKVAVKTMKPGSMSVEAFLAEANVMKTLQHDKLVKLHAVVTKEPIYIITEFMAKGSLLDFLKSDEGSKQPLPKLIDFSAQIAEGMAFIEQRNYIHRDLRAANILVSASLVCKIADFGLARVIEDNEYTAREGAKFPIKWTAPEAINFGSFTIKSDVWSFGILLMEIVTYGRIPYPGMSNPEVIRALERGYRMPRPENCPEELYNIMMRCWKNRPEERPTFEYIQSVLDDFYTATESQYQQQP

AncSZ = experiment: as above
Fer (mouse) = experiment: as above
FGFR1 = FGFR1 (UniProt P11362); experiment: as above
FGFR1, sequence (P11362 whole entry, looked up): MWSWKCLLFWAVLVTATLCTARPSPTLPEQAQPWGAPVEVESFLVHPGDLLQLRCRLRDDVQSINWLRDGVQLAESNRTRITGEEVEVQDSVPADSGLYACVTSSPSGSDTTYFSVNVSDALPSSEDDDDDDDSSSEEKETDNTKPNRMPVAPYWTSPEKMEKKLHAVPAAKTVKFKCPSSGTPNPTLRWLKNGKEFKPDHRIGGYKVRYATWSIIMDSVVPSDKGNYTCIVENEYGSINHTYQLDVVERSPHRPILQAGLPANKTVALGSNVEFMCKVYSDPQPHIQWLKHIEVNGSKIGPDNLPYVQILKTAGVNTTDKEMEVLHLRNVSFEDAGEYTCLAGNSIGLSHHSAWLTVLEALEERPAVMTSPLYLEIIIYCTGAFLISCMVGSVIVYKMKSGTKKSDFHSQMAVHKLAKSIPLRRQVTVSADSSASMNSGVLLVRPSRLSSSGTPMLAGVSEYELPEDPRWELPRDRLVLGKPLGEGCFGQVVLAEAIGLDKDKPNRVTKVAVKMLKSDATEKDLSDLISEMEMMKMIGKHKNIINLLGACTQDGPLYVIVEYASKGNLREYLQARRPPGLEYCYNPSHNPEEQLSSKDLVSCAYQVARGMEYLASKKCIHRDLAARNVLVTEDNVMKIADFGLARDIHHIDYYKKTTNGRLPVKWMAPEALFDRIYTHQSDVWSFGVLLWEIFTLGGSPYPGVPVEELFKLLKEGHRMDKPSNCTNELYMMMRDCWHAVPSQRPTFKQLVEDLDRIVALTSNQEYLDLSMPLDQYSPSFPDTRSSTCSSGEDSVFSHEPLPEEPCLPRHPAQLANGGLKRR

FGFR3 = FGFR3 (UniProt P22607); experiment: as above
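For SH2 binding enrichment of the phosphorylated peptide, bacterial display in this document: peptide library displayed on the E. coli surface as eCPX fusions, selected cells deep-sequenced, score is each peptide's frequency after selection divided by its frequency in the input.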
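For phosphorylation enrichment, bacterial display in this document: 11-residue human phosphosite peptides and single-mutation variants displayed on the E. coli surface, counted by deep sequencing, each peptide's frequency after selection divided by its frequency in the unselected input library; frequency after pTyr selection over input frequency; kinase dosed for 20-30% of maximal phosphorylation in three min.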

Grb2 SH2, sequence (P62993 whole entry, looked up): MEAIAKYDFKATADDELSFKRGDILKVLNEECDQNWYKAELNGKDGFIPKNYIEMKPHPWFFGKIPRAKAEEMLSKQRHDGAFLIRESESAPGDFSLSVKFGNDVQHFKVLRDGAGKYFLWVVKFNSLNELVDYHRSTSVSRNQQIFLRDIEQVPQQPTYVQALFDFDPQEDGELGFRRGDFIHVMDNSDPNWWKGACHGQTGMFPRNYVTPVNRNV

| Sequence | SH2 binding enrichment (SHP2-C SH2) | SH2 binding enrichment (c-Src SH2) | SH2 binding enrichment (Grb2 SH2) | phosphorylation enrichment (EPHB2) | phosphorylation enrichment (Jak2) | phosphorylation enrichment (c-Src) | phosphorylation enrichment (EPHB1) | phosphorylation enrichment (Fyn) | phosphorylation enrichment (Fes) | phosphorylation enrichment (c-Abl (mouse)) | phosphorylation enrichment (MERTK) | phosphorylation enrichment (Hck) | phosphorylation enrichment (AncSZ) | phosphorylation enrichment (Fer (mouse)) | phosphorylation enrichment (FGFR1) | phosphorylation enrichment (FGFR3) |
| --- | --- | --- | --- | --- | --- | --- | --- | --- | --- | --- | --- | --- | --- | --- | --- | --- |
| PAIYTYDEYKK [COL8A2_Y648_T645I] | 0.513 | 2.29 | 0.778 | 3.29 | 1.27 | 9.14 | 3.61 | 18.6 | 1.95 | 1.04 | 13.5 | 8.13 | 1.93 | 9.34 | 2.04 | 2.2 |
| SRGSSYSSIPK [FLNC_Y2625] | 0.563 | 1.02 | 0.769 | 0.322 | 0.498 | 0.444 | 0.304 | 0.358 | 0.518 | 0.428 | 0.489 | 0.381 | 0.474 | 0.37 | 0.479 | 0.362 |
| FSQNIYIQNRN [PKP2_Y631_YF] | 0.843 | 0.864 | 0.964 | 0.425 | 0.517 | 0.45 | 0.396 | 0.447 | 0.62 | 0.459 | 0.383 | 0.589 | 0.619 | 0.418 | 0.54 | 0.473 |
| ANNEFYFRVCA | 0.567 | 0.37 | 0.716 | 0.548 | 1.39 | 0.412 | 0.563 | 0.483 | 1.43 | 0.923 | 0.44 | 0.516 | 1.28 | 0.536 | 0.445 | 0.824 |
| PARLEYCENEK [IRS1_Y46_Y47C] | 1.21 | 1.26 | 0.909 | 0.823 | 1.76 | 1.05 | 0.947 | 1.12 | 1.74 | 1.08 | 0.762 | 1.04 | 1.75 | 0.816 | 0.809 | 1.16 |
| WSFNLYDINKD [KCNIP3_Y174_A170S] | 0.676 | 0.469 | 0.676 | 0.875 | 1.12 | 0.88 | 0.894 | 1.07 | 1.45 | 0.68 | 0.796 | 1.29 | 1.36 | 1.01 | 0.566 | 0.819 |
| RRLEPYGENFN [APOA4_Y310_V307L] | 0.286 | 0.527 | 0.822 | 0.317 | 0.681 | 0.463 | 0.398 | 0.281 | 0.732 | 0.371 | 0.385 | 0.25 | 1.04 | 0.315 | 0.266 | 0.493 |
| APQFTYAQGGQ [FLNA_Y1763_YF] | 0.611 | 0.546 | 0.705 | 0.739 | 0.42 | 0.538 | 0.372 | 0.574 | 0.706 | 0.421 | 0.26 | 0.415 | 0.645 | 0.304 | 0.585 | 0.628 |
| SADIAYNYRHG [PAH_Y166_F161S] | 0.699 | 0.445 | 0.817 | 0.378 | 0.435 | 0.388 | 0.333 | 0.345 | 0.498 | 0.508 | 0.329 | 0.344 | 0.488 | 0.469 | 0.362 | 0.391 |
| LQEKSYIKGTS [LCTL_Y331] | 1.1 | 0.546 | 1.41 | 1.02 | 0.595 | 0.9 | 0.652 | 0.616 | 1.21 | 0.723 | 0.609 | 0.912 | 1.33 | 0.96 | 1.15 | 1.08 |
| QFRFIYMAVQH [PTPN11_Y515_YF] | 0.635 | 0.58 | 0.948 | 0.704 | 2.21 | 1.97 | 1.06 | 0.939 | 2.52 | 1.73 | 0.858 | 1.42 | 2.5 | 1.3 | 0.544 | 1.22 |
| EVVGGYSVHNA [MLH1_Y183_R182G] | 0.537 | 0.437 | 0.951 | 0.314 | 0.504 | 0.336 | 0.306 | 0.324 | 0.729 | 0.643 | 0.369 | 0.44 | 0.528 | 0.372 | 0.339 | 0.599 |
| ASLEAYCKHKF [RXRA_Y403_YF] | 0.868 | 0.767 | 0.963 | 0.66 | 0.697 | 0.497 | 0.572 | 0.468 | 1.07 | 0.687 | 0.556 | 0.519 | 0.83 | 0.585 | 0.654 | 0.915 |
| ITVPAYFNDLQ [HSPA9_Y196_S200L] | 0.722 | 0.583 | 1.15 | 0.495 | 1.15 | 0.468 | 0.705 | 0.452 | 1.3 | 0.766 | 0.431 | 0.538 | 1.13 | 0.524 | 0.555 | 0.77 |
| TARREYMHSPS [CPOX_Y429_W427R] | 0.647 | 0.647 | 0.859 | 0.449 | 0.468 | 0.432 | 0.345 | 0.63 | 0.656 | 0.507 | 0.43 | 0.471 | 0.489 | 0.396 | 0.349 | 0.355 |
| STLEVYRCHPP [IL21R_Y317_S318R] | 0.455 | 0.42 | 0.715 | 0.675 | 1.03 | 0.497 | 0.758 | 0.542 | 1.25 | 0.78 | 0.364 | 0.552 | 1.11 | 0.49 | 0.55 | 0.901 |
| NFFEFYVDDPP [GCHFR_Y48_YF] | 0.594 | 0.533 | 0.978 | 0.621 | 1.12 | 0.575 | 0.704 | 0.569 | 1.28 | 0.836 | 0.531 | 0.499 | 1.44 | 0.557 | 0.741 | 0.925 |

| Sequence | SH2 binding enrichment (SHP2-C SH2) | SH2 binding enrichment (c-Src SH2) | SH2 binding enrichment (Grb2 SH2) | phosphorylation enrichment (EPHB2) | phosphorylation enrichment (Jak2) | phosphorylation enrichment (c-Src) | phosphorylation enrichment (EPHB1) | phosphorylation enrichment (Fyn) | phosphorylation enrichment (Fes) | phosphorylation enrichment (c-Abl (mouse)) | phosphorylation enrichment (MERTK) | phosphorylation enrichment (Hck) | phosphorylation enrichment (AncSZ) | phosphorylation enrichment (Fer (mouse)) | phosphorylation enrichment (FGFR1) | phosphorylation enrichment (FGFR3) |
| --- | --- | --- | --- | --- | --- | --- | --- | --- | --- | --- | --- | --- | --- | --- | --- | --- |
| DLFRLYVCVKE [ARID1B_Y1091] | 0.51 | 0.35 | 0.59 | 0.67 | 1.35 | 0.431 | 0.697 | 0.396 | 1.52 | 0.875 | 0.364 | 0.475 | 1.17 | 0.548 | 0.389 | 0.88 |
| KRLWDYGMSSS [F8_Y1728_E1723K] | 0.57 | 0.457 | 0.971 | 0.461 | 0.666 | 0.394 | 0.429 | 0.341 | 0.706 | 0.536 | 0.359 | 0.337 | 0.592 | 0.339 | 0.399 | 0.511 |
| SSKILYHIIKG [CDH17_Y489] | 3.78 | 6.59 | 0.958 | 0.529 | 0.63 | 0.453 | 0.395 | 0.45 | 0.798 | 0.438 | 1.12 | 0.655 | 0.565 | 0.383 | 1.22 | 0.923 |
| GTQCSYLLSRK [UGT3A1_Y123] | 0.833 | 0.704 | 1.03 | 0.554 | 0.655 | 0.42 | 0.427 | 0.329 | 0.676 | 0.569 | 0.436 | 0.392 | 0.634 | 0.43 | 0.482 | 0.441 |
| IKKLIYVYLVI [JAGN1_Y42_H44Y] | 1.06 | 0.612 | 1.4 | 0.411 | 0.817 | 0.475 | 0.466 | 0.412 | 0.97 | 0.955 | 0.427 | 0.43 | 0.873 | 0.323 | 0.351 | 0.452 |
| ISKKHYAGLLF [POLD1_Y809_R808H] | 12.4 | 2.04 | 1.22 | 0.381 | 0.636 | 0.436 | 0.317 | 0.42 | 0.671 | 0.521 | 0.456 | 0.46 | 0.545 | 0.469 | 0.468 | 0.643 |
| YKTPIYPYLLP [PLD2_Y578_T577I] | 1.04 | 2.4 | 0.953 | 0.744 | 1.51 | 0.707 | 0.816 | 0.787 | 0.857 | 0.899 | 2.08 | 0.628 | 1.14 | 0.695 | 2.43 | 1.53 |
| QDDTVYMGKVT [DCTN1_Y1244] | 0.974 | 0.649 | 1.04 | 0.918 | 1.31 | 0.917 | 0.8 | 0.958 | 2.4 | 1.37 | 0.714 | 1.24 | 1.96 | 2.72 | 0.789 | 1.17 |
| HFVDEYDLTIE [KRAS_Y32_P34L] | 0.847 | 0.633 | 0.874 | 0.423 | 2.13 | 0.922 | 0.711 | 0.811 | 2.16 | 1.4 | 0.812 | 0.749 | 2.56 | 0.841 | 0.752 | 1.14 |
| QRIYQYIRSRF [DYRK1B_Y273_Q275R] | 0.428 | 0.369 | 0.844 | 0.601 | 0.817 | 1.16 | 0.9 | 0.809 | 1.17 | 1.27 | 1.01 | 1.05 | 0.887 | 0.734 | 0.677 | 0.818 |
| QRALLYEDALF [UNC13D_Y56_YF] | 0.573 | 0.593 | 0.828 | 8.85 | 0.867 | 1.5 | 10.4 | 1.54 | 2.16 | 0.878 | 4.86 | 1.45 | 1.21 | 16.1 | 0.68 | 0.896 |
| NQKGKYFNVER [ANAPC4_Y469_R465Q] | 1.03 | 0.667 | 1.15 | 0.372 | 0.489 | 0.386 | 0.353 | 0.462 | 0.603 | 0.588 | 0.373 | 0.449 | 0.614 | 0.39 | 0.361 | 0.469 |
| AGAKTYKMSMA [CPS1_Y309] | 0.819 | 0.586 | 0.688 | 0.264 | 0.527 | 0.399 | 0.328 | 0.402 | 0.405 | 0.383 | 0.364 | 0.374 | 0.389 | 0.406 | 0.309 | 0.426 |
| ITLPIYTKGSE [ANK2_Y1455_E1458G] | 0.715 | 0.392 | 0.78 | 0.478 | 0.571 | 0.529 | 0.599 | 0.581 | 0.759 | 0.446 | 0.481 | 0.645 | 0.63 | 0.451 | 0.392 | 0.502 |
| EKEKKYMLPLD [DNM2_Y563] | 0.841 | 0.534 | 0.902 | 0.473 | 0.849 | 0.452 | 0.526 | 0.625 | 0.796 | 0.589 | 0.449 | 0.591 | 0.885 | 0.489 | 0.412 | 0.466 |
| LSQAKYQIRYR [CRLF1_Y272_F268S] | 0.558 | 0.368 | 1.29 | 0.764 | 0.711 | 0.387 | 0.506 | 0.776 | 0.768 | 0.592 | 0.479 | 0.667 | 0.617 | 0.467 | 0.638 | 0.603 |
